Experimental data taken from the nanobody polyreactivity screen of Harvey et al. (2022).

Assay: yeast display, Sf9 membrane polyspecificity reagent, FACS + sequencing; frameworks hold sequencing errors
Procedure, shortened: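 Using colony PCR, genes from sorted yeast display clones were amplified, then sequenced on MiSeq at 2 × 250 and filtered by CDR length. The clones had been stained with 10% biotinylated, detergent-solubilized Sf9 membrane reagent for 1 hour at 4 °C and sorted by FACS into low and high (top ~1%) gates on anti-HA and streptavidin fluorescence. Polyreactivity labels come from the gate of origin.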

Row | Sequence | polyreactivity (PSR sort gate)
1 | QVQLVESGGGLVQAGGSLRLSCAASGIIFYPNAMGWYRQAPGKERELVAAITGSGGSTYYADSVKGRFTISRDNAKNTVYLQMNSLKPEDTAVYYCNARVYWYYPMDYWGQGTQVTVSS | low polyreactivity
2 | QVQLVESGGGLVQAGGSLRLSCAASGITFPKYAMGWYRQAPGKERELVAAITKSGGSTYYADSVKGRFTISRDNAKNTVYLQMNSLKPEDTAVYYCAARPRYGEYDYWGQGTQVTVSS | high polyreactivity
3 | QVQLVESGGGLVQAGGSLRLSCAASGRIFSPYAMGWYRQAPGKERELVARISWRGSRTYYADSVKGRFTISRDNAKNTVYLQMNSLKPEDTAVYYCNAVFYRKPLRRDYWVQGTQVTVSS | high polyreactivity
4 | QVQLVESGGGLVQAGGSLRLSCAASGFTFTYYDMGWYRQAPGKERELVAAISRSGGRTYYADSVKGRFTISRDNAKNTVYLQMNSLKPEDTAVYYCAARRVDTRVHVRYRYYYWGQGTQVTVSS | high polyreactivity
5 | QVQLVESGGGLVQAGGSLRLSCAPSGSIFRKNAMGWYRQAPGKERELVAAITGTGRTTYADSVKGRFTISRDNAKNTVYLQMNSLKPEDTAVYYCAAESVSSGDNASRYDYWGQGTQVTVSS | low polyreactivity
6 | QDQLVESGGGIVQAGGSLRLSCAASGRTFVAYAMGLYRQAPGKEREFVARISSGGSTYYADSVKGRFTISRDNAKNTVYLQMNSLKPEDTAVYYCAADRGPYFVPWRRYDYWGQGTQVTVSS | low polyreactivity
7 | QVQLVESGGGLVQAGGSLRLSCAASGFTFRYYAMGWYRQAPGKERELVASITSSGSTNYADSVKGRFTISRDNAKNTVYLQMNSLKPEDTAVYYCAKGWGSDPFRKYGDYWGQGTQVTVSS | high polyreactivity
8 | QVQLVESVGGLVQAGGSLRLSCAASGSTFGFNAMGWYRQAPGKERELVAAIRRSDSSTYYADSVKGRFTISRDNAKNTVYLQMNSLKPEDTAVYYCAADVWVSWLLFKYEYWGQGTQVTVSS | low polyreactivity
9 | QDQLVESGGGLVQAGASLRLSCAASGRISYYYTMGWYRQAPGKERELVAAISWSGGTTYYADSVKGRFTISRDNAKNTVYLQMNSLKPDDTAVYYCAAREYYTDVHGTRRYDYWGQGTQVTVSS | low polyreactivity
10 | QVQLVESGGGLVQAGGSLRLSCAASGRTFSYNAMGWYRQAPGKERELVARISSGGSTNYADSVKGRFTISRDNAKNTVYLQMNSLKPEDTAVYYCNAGSYVWEEDYCGQGTQVTVSS | high polyreactivity
11 | QVQLVESGGGLVQAGGSLRLSCAASGSTLSRYAMGWYRQAPGKERELVAAISWSGGRTYYADSVKGRFTISRDYAKNTVYLQMNSLKPEDTAVYYCAARYGYRTPDGDYWGQGTQVTVSS | high polyreactivity
12 | QVQLVESGGGLVQAGGSLRLSCAASGFTFQYNAMGWYRQAPGKERELVAAITWTGTSTYADSVKGRFTISRDNATNTVYLQMNSLKPEDTAVYYCADSYYAPRWFRYDYWGQGTQVTVSS | low polyreactivity
13 | QVQLVESGGGLVQAGGSLRLSCAASGRTFRGNAMGWYRQAPGKERELVAAITSSGGGTYYADSVKGRFTISRDNAKNTVYLQMYSLKPEDTAVYYCAAEYRDGYRFSYDYWGQGTQVTVSS | low polyreactivity
14 | QVQLVESCGCLVQAGGSLRFSCAASGNTFRRNVMGWYRQAPGKEREMVAAINRGGSTTYADSVKGRFTISRDNAKNTVYLQMNSLKPEDTAVYYFNDRTLFKWRHGHYYAYDYWGQGTQVTVSS | high polyreactivity
15 | QVQLVESGGGLVQAGGSLRLSCAASGSIFARYTMGWYRQAPGKERELVARITSSGGSTYYADSVKGRFTISRDNAKNTVYLQMNSLKPEDTAVYYCNKAYRYYWRMEYWGQGTQVTVSS | high polyreactivity
16 | QVQLVESGGGLVQAGGSLRLSCDASGRTFKQNAMGWYRQAPGKERELVATIRNGVNTNYEDSVKGRFTISRDNAKNTVYLQMNSLKPEDTAVYYCAARYWQAHAFQGNTGYSWQYGYWGQGTQVTVSS | high polyreactivity
